Assay results published in US20220061310A1.

Biological target: PDGF receptor PDGFRβ on the surface of 293-SL/PR cells (transformed 293T cell line)
Assay: cell-based or functional assay

Question: Which bioactivity by luciferase assay in 293-SL/PR reporter cells; PDGF at 30 ng/mL lyophilized with 3 mg/mL collagen (experimental group) does the source give for “recombinant human PDGF B (rhPDGF B) (from UniProt P01127 82-190) (ligand)” here?
Answer: 310000 RLU/sec

Question: What about the bioactivity by luciferase assay in 293-SL/PR reporter cells; PDGF solution (control group) at 120 ng/mL of the same substance?
Answer: 340000 RLU/sec
